In publication PMC5586343, “t‐Darpp is an elongated monomer that binds calcium and is phosphorylated by cyclin‐dependent kinases 1 and 5” (FEBS Open Bio, 2017):

Target: the molecule itself
Assay: cross-linking; glutaraldehyde 0.1% (v/v) and 1% (v/v), 30 min at 25 °C, then SDS/PAGE; each protein alone and an equimolar mixture of t‐Darpp and Darpp‐32

B1: Darpp‐32 (dopamine‐ and cAMP‐regulated phosphoprotein) (natural protein, human, UniProt Q9UD71-1 1-204, looked up)
chain: MDPKDRKKIQFSVPAPPSQLDPRQVEMIRRRRPTPAMLFRLSEHSSPEEEASPHQRASGEGHHLKSKRPNPCAYTPPSLKAVQRIAESHLQSISNLNENQASEEEDELGELRELGYPREEDEEEEEDDEEEEEEEDSQAEVLKVIRQSAGQKTTCGQGLEGPWERPPPLDESERDGGSEDQVEDPALSEPGEEPQRPSPSEPGT
notes: Darpp‐32, longer isoform of PPP1R1B with 36 additional N-terminal residues compared with t‐Darpp; cDNA amplified from Darpp‐32/pET‐49 and cloned into pET‐28a; source: E. coli BL21 DE3, purified (Ni‐NTA)
  stoichiometry N: 2
